pKd: −log10 of the molar value.
Legend:
[1] = target: human plasma-derived Factor X zymogen (human) (UniProt P00742); assay: cell-based or functional assay
[2] = target: human activated Factor X (human) (UniProt P00742); assay: cell-based or functional assay
[3] = target: human plasma-derived Factor X zymogen (human) (UniProt P00742); assay: apparent KD fitted from FXa generation assay

human plasma-derived Factor X zymogen (human), sequence (P00742 41-179, chain 1 of 2): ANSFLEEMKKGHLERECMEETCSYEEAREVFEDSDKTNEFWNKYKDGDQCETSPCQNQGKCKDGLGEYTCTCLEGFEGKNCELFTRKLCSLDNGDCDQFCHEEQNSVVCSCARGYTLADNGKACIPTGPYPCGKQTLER
human plasma-derived Factor X zymogen (human), sequence (P00742 183-488, chain 2 of 2): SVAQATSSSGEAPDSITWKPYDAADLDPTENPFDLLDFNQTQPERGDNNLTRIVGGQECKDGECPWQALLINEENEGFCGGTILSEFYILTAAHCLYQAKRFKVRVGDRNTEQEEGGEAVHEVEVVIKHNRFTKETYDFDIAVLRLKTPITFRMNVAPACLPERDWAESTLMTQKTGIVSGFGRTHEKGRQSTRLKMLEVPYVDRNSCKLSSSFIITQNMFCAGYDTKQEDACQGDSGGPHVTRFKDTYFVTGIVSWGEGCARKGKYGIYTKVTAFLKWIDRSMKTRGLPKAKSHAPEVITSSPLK
human activated Factor X (human), sequence (P00742 41-179, chain 1 of 2): as the sequence (P00742 41-179, chain 1 of 2) above
human activated Factor X (human), sequence (P00742 235-488, chain 2 of 2): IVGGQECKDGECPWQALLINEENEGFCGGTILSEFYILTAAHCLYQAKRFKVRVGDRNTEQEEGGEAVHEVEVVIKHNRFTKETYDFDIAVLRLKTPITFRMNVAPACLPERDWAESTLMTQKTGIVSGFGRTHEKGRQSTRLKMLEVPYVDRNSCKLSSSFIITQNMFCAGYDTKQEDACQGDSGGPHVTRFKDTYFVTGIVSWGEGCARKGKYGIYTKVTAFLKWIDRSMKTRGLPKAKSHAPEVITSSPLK

Question: For Fab ACE910 anti-FX (J327/L404-k), which Increase in FX activation (fold) [1] is on record?
Answer: < 0.6 fold

Question: What about the FXa amidolytic activity (relative to free FXa, fold) [2] of the same substance?
Answer: 1.02 fold

Question: What about the pKd [3] of the same substance?
Answer: 5.41
